Source: IntAct's records for PubMed 30262834

Biological target: lrrt2_human LRRTM2 (UniProt O43300)
Sequence (O43300 whole entry): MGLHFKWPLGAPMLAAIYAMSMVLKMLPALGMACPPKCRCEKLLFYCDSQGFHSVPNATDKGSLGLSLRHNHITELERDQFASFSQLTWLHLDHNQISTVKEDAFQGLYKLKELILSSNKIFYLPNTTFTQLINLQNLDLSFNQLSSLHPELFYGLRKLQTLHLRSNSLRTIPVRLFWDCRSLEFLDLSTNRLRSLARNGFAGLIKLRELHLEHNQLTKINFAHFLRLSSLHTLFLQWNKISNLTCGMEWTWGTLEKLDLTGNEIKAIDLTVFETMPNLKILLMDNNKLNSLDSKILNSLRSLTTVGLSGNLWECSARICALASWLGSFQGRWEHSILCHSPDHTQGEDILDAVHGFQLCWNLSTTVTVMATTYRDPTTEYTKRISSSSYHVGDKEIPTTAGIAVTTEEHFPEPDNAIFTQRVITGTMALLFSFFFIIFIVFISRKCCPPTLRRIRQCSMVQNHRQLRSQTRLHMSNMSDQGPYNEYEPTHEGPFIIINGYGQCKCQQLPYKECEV

Neurexin-1-beta (Homo sapiens), P58400-1 D141A, sequence (P58400 other isoform, or with tags, fused parts or gaps D141A): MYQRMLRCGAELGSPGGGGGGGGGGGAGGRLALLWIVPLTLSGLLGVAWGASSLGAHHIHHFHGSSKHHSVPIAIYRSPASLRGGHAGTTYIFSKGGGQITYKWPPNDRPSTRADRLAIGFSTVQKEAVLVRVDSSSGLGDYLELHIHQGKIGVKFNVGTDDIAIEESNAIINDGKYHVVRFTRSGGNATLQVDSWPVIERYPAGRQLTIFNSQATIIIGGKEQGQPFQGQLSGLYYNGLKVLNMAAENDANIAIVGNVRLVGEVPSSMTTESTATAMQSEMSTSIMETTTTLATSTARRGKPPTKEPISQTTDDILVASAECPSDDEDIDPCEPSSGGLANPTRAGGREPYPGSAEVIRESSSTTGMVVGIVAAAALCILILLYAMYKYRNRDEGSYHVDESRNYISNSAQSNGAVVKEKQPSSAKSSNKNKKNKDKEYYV

## Neurexin-1-beta (Homo sapiens), P58400-1 D141A
  effect of a mutation on the interaction: disrupting interaction strength
